A short description of the data set: collision cross section of modified peptide (TIMS, N2, iRT-aligned); higher = larger / more extended gas-phase ion. A digest of the protocol: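 Collision cross section was derived from the Mason-Schamp equation. Each value averages 1–3 technical replicates of the most abundant feature per charge state, measured on a timsTOF Pro/HT in dda-PASEF mode (nitrogen, ~2.4 mbar) after a 120-min nanoflow C18 gradient at 60 °C. Synthetic peptide pools (~100 fmol/µL in 2% acetonitrile/0.1% formic acid, iRT standard spiked 1:40) were identified with MaxQuant, and 1/K0 was calibrated with three reference ions and aligned run-wise to the median iRT peptide deviation.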

Where [1] appears, read: charge state: 2, modification: GlyGly (K).
Where [2] appears, read: charge state: 3, modification: GlyGly (K).
[3] abbreviates: charge state: 2, modification: Acetyl (K).
The mark [4] stands for this setting: charge state: 3, modification: Acetyl (K).
[5] abbreviates: charge state: 3, modification: hydroxyisobutyryl.
Where [6] appears, read: charge state: 3, modification: Methyl (R).
Setting [7] is: charge state: 2, modification: Formyl.
The mark [8] stands for this setting: charge state: 2, modification: Phospho (Y).
Setting [9] is: charge state: 2, modification: Dimethyl (K).
Where [10] appears, read: charge state: 3, modification: Dimethyl (K).
Setting [11] is: charge state: 2, modification: Succinyl.
Where [12] appears, read: charge state: 3, modification: Succinyl.
Where [13] appears, read: charge state: 2, modification: Crotonyl.
Where [14] appears, read: charge state: 2, modification: Glutarylation.
The mark [15] stands for this setting: charge state: 2, modification: Nitro (Y).
The mark [16] stands for this setting: charge state: 2, modification: Trimethyl (K).
Where [17] appears, read: charge state: 3, modification: Trimethyl (K).
[18] abbreviates: charge state: 2, modification: Methyl (K).
[19] abbreviates: charge state: 3, modification: Methyl (K).
The mark [20] stands for this setting: charge state: 3, modification: Glutarylation.
Setting [21] is: charge state: 2, modification: Propionyl.
The mark [22] stands for this setting: charge state: 3, modification: Malonyl.
Where [23] appears, read: charge state: 2, modification: Butyryl.
Where [24] appears, read: charge state: 2, modification: Malonyl.

± gives the standard deviation.

Results on 62 sequences are retold here after the supplement of paper PMC10598134.

The sequence “IPQEKCILQTDVK [_IPQEK(GlyGly (K))CILQTDVK_]” gave a collision cross section under setting [1] of 446.01 ± 0.95 Å² and a collision cross section under setting [2] of 482.94 ± 1.1 Å². For the sequence “SSGPGGQNVNKVNSK [_SSGPGGQNVNK(Acetyl (K))VNSK_]”, the collision cross section is on record as 401.59 ± 1.4 Å² under setting [3] and 440.11 ± 2.5 Å² under setting [4].

As to “ATVASSTQKFQDLGVK [_ATVASSTQK(hydroxyisobutyryl)FQDLGVK_]”, the collision cross section runs as follows: (charge state: 2, modification: hydroxyisobutyryl) 453.68 ± 1.4 Å²; under setting [5], 498.28 ± 1.6 Å².

On to “FSYTSQHSDYGQR [_FS(HexNAc (ST))YTSQHSDYGQR_]”, for which the collision cross section (charge state: 3, modification: HexNAc (ST)) is 502.75 ± 0.96 Å². With “GRGTGEAEEEYVGPR [_GR(Methyl (R))GTGEAEEEYVGPR_]”, under setting [6], the collision cross section stood at 491.55 ± 1.6 Å².

Take ASNAAVKLAESK [_ASNAAVK(Formyl)LAESK_]: the collision cross section under setting [7] stood at 365.07 ± 0.39 Å².

“YEQEHAAIQDKLFQVAK [_YEQEHAAIQDK(hydroxyisobutyryl)LFQVAK_]” displayed a collision cross section under setting [5] of 519.87 ± 2 Å². LSSETYSQAK [_LSSETY(Phospho (Y))SQAK_]: the collision cross section under setting [8] is reported as 357.2 ± 0.065 Å². On to “IVSGKDYNVTANSK [_IVSGK(Dimethyl (K))DYNVTANSK_]”, for which the collision cross section under setting [9] was determined as 404.57 ± 0.47 Å² and the collision cross section under setting [10] was 462.9 ± 1.6 Å².

For LTEKELAEAASK [_LTEK(Succinyl)ELAEAASK_], the collision cross section reads like this: under setting [11], 389.23 ± 1.1 Å²; under setting [12], 454.1 Å². For GLATFPSRGAK [_GLATFPSR(Methyl (R))GAK_], the collision cross section was found to be 371.86 ± 0.78 Å² (charge state: 2, modification: Methyl (R)) and 447 ± 3.2 Å² under setting [6].

Take “VDVEVPDVSLEGPEGKLK [_VDVEVPDVSLEGPEGK(Acetyl (K))LK_]”: the collision cross section reads like this: under setting [3], 461.92 ± 2.1 Å²; under setting [4], 555.98 Å².

Consider “VGLQVVAVKAPGFGDNR [_VGLQVVAVK(Formyl)APGFGDNR_]”, for which the collision cross section was 440.17 ± 1.2 Å² under setting [7] and 529.54 ± 3 Å² (charge state: 3, modification: Formyl). TLQKQSVVYGGK [_TLQK(Formyl)QSVVYGGK_]: under setting [7], the collision cross section is on record as 387.94 ± 1 Å².

With SGFGKFER [_SGFGK(Crotonyl)FER_], the collision cross section under setting [13] is recorded as 337.57 ± 1.3 Å². For “GEVQVSDKER [_GEVQVSDK(Gluratylation)ER_]”, the collision cross section under setting [14] was found to be 368.37 ± 8.3 Å².

In the case of VETTVTSLKTK [_VETTVTSLK(Acetyl (K))TK_], the collision cross section reads like this: under setting [3], 378.83 ± 0.45 Å²; under setting [4], 444.47 Å². Turning to YIGTGHADTTK [_Y(Nitro (Y))IGTGHADTTK_], the collision cross section amounted to 358.04 ± 1.2 Å² under setting [15] and 452.29 ± 0.83 Å² (charge state: 3, modification: Nitro (Y)). Consider “SPDEAYAIAKK [_SPDEAYAIAK(Dimethyl (K))K_]”, for which the collision cross section stood at 376.23 ± 0.37 Å² under setting [9] and 437.31 ± 0.63 Å² under setting [10]. “GFCFITYTDEEPVKK [_GFCFITYTDEEPVK(Succinyl)K_]”: the collision cross section under setting [11] is 465.85 ± 1.1 Å².

As to “DAEAAEATAEGALKAEK [_DAEAAEATAEGALK(Trimethyl (K))AEK_]”, the collision cross section came to 469.97 ± 1 Å² under setting [16] and 535.87 ± 1.1 Å² under setting [17]. For the sequence “VDIDAPDVSIEGPDAKLK [_VDIDAPDVSIEGPDAK(Methyl (K))LK_]”, the collision cross section runs as follows: under setting [18], 453.93 ± 0.34 Å²; under setting [19], 544.25 ± 0.42 Å². TSAYGPPTR [_TSAY(Phospho (Y))GPPTR_] showed a collision cross section under setting [8] of 336.75 ± 0.067 Å². Consider “SKLLFSNTAAQK [_SK(Dimethyl (K))LLFSNTAAQK_]”, for which, under setting [9], the collision cross section is on record as 389.15 Å². Consider IGNSYFKEEK [_IGNSYFK(Dimethyl (K))EEK_], for which the collision cross section is reported as 384.15 ± 0.26 Å² under setting [9] and 447.26 ± 3 Å² under setting [10].

Regarding “GEVQVSDKER [_GEVQVSDK(Trimethyl (K))ER_]”, the collision cross section under setting [16] came out at 366.73 ± 1.1 Å². Sequence “DTPTSAGPNSFNKGK [_DTPTSAGPNSFNK(Formyl)GK_]” returned a collision cross section under setting [7] of 404 ± 0.2 Å². Take “FGTINIVHPKLGSYTK [_FGTINIVHPK(GlyGly (K))LGSYTK_]”: under setting [2], the collision cross section amounted to 511.55 ± 1.9 Å². “LGSPSGKTGTCR [_LGSPSGK(GlyGly (K))TGTCR_]” returned a collision cross section under setting [2] of 454.35 ± 1.5 Å². As for “VDIDAPDVSIEGPDAKLK [_VDIDAPDVSIEGPDAK(Crotonyl)LK_]”, the collision cross section under setting [13] is reported as 471.19 ± 1.1 Å².

For the sequence IQTKAGEATVK [_IQTK(Succinyl)AGEATVK_], under setting [11], the collision cross section is on record as 366.8 ± 0.24 Å². With LEQVEKELLR [_LEQVEK(Formyl)ELLR_], the collision cross section under setting [7] was determined as 382.29 ± 0.41 Å². SDDESSQKDIK [_SDDESSQK(Acetyl (K))DIK_] showed a collision cross section under setting [3] of 374.03 ± 0.38 Å². Under setting [18], IQTKAGEATVK [_IQTK(Methyl (K))AGEATVK_] showed a collision cross section of 367.02 ± 0.38 Å². As to “YEQEHAAIQDKLFQVAK [_YEQEHAAIQDK(Trimethyl (K))LFQVAK_]”, the collision cross section under setting [17] is 561.55 ± 0.91 Å². Regarding “AGPNASIISLKSDK [_AGPNASIISLK(Dimethyl (K))SDK_]”, the collision cross section worked out at 413.93 ± 1.1 Å² under setting [9] and 484.65 ± 1.6 Å² under setting [10]. Consider “HELQANCYEEVKDR [_HELQANCYEEVK(Gluratylation)DR_]”, for which the collision cross section under setting [20] stood at 487.76 ± 1.7 Å². “DDSFLGKLGGTLAR [_DDSFLGK(Trimethyl (K))LGGTLAR_]”: the collision cross section runs as follows: under setting [16], 427.63 Å²; under setting [17], 472.67 ± 1.8 Å². Sequence LTEKELAEAASK [_LTEK(Crotonyl)ELAEAASK_] registered a collision cross section under setting [13] of 394.89 ± 2.4 Å². Regarding KYEEIDNAPEER [_K(Succinyl)YEEIDNAPEER_], the collision cross section amounted to 412.18 ± 0.54 Å² under setting [11] and 490.15 Å² under setting [12]. In turn, “SGNLTEDDKHNNAK [_SGNLTEDDK(Propionyl)HNNAK_]” yielded a collision cross section under setting [21] of 423.13 ± 0.36 Å² and a collision cross section (charge state: 3, modification: Propionyl) of 471.16 Å². As for “TFGKAAGPSLSHTSGGTQSK [_TFGK(Malonyl)AAGPSLSHTSGGTQSK_]”, the collision cross section under setting [22] was 514.27 ± 0.92 Å². Consider “SITHSTVGSKGEK [_SITHSTVGSK(Acetyl (K))GEK_]”, for which the collision cross section runs as follows: under setting [3], 391.66 ± 1.8 Å²; under setting [4], 440.5 ± 4 Å². SDDESSQKDIK [_SDDESSQK(Succinyl)DIK_]: the collision cross section under setting [11] was 378.1 ± 1 Å². Sequence “GFCFITYTDEEPVKK [_GFCFITYTDEEPVK(Butyryl)K_]” returned a collision cross section under setting [23] of 458.8 ± 0.51 Å². Turning to “LQEKVESAQSEQK [_LQEK(Malonyl)VESAQSEQK_]”, the collision cross section is 413.7 ± 1.6 Å² under setting [24] and 504.23 ± 2.2 Å² under setting [22]. “VFIGNLNTLVVKKK [_VFIGNLNTLVVK(Malonyl)KK_]” returned a collision cross section under setting [22] of 517.22 Å².

For the sequence “DAIHFYNKSLAEHR [_DAIHFYNK(hydroxyisobutyryl)SLAEHR_]”, the collision cross section under setting [5] was 512.82 ± 2.8 Å². Under setting [21], TTEETSKPK [_TTEETSK(Propionyl)PK_] came in with a collision cross section of 342.02 ± 0.39 Å². In the case of “VFIGNLNTLVVKK [_VFIGNLNTLVVK(Gluratylation)K_]”, the collision cross section by setting is: under setting [14], 424.62 ± 0.97 Å²; under setting [20], 495.12 ± 1.7 Å². In turn, DDSNLYINVK [_DDSNLY(Phospho (Y))INVK_] gave a collision cross section under setting [8] of 368.08 ± 0.064 Å². The sequence “SITHSTVGSKGEK [_SITHSTVGSK(Butyryl)GEK_]” displayed a collision cross section under setting [23] of 396.1 ± 0.79 Å² and a collision cross section (charge state: 3, modification: Butyryl) of 440.88 ± 2.8 Å². Sequence “SSGPGGQNVNKVNSK [_SSGPGGQNVNK(Propionyl)VNSK_]” displayed a collision cross section under setting [21] of 404.47 ± 0.49 Å². On to “GEAGPTGPQGEPGVR [_GEAGPTGPQGEP(Hydroxyproline)GVR_]”, for which the collision cross section (charge state: 2, modification: Hydroxyproline) was determined as 382.58 ± 0.36 Å². In the case of “DKALPLEAEVAPVK [_DK(GlyGly (K))ALPLEAEVAPVK_]”, the collision cross section is, setting by setting: under setting [1], 422.58 ± 0.97 Å²; under setting [2], 511.69 ± 1.3 Å².

For the sequence SVSSSSYR [_SVSSSSY(Nitro (Y))R_], the collision cross section under setting [15] amounted to 311.12 ± 0.16 Å².

ITGKNQVTATK [_ITGK(Butyryl)NQVTATK_] came in with a collision cross section under setting [23] of 370.52 ± 0.71 Å². Under setting [24], GSLEKGSPEDK [_GSLEK(Malonyl)GSPEDK_] yielded a collision cross section of 365.48 ± 0.011 Å².

In the case of “INNFSADIKDSK [_INNFSADIK(Methyl (K))DSK_]”, the collision cross section amounted to 401.35 ± 2.2 Å² under setting [18] and 451.47 ± 4.8 Å² under setting [19].

In turn, “PGGEGPQCEKTTDVK [_PGGEGPQCEK(Methyl (K))TTDVK_]” registered a collision cross section under setting [19] of 460.64 Å². For the sequence SVSSSSYR [_SVSSSSY(Phospho (Y))R_], the collision cross section under setting [8] worked out at 317.55 ± 0.69 Å². Sequence “VNVEAPDVNLEGLGGKLK [_VNVEAPDVNLEGLGGK(Dimethyl (K))LK_]” yielded a collision cross section under setting [9] of 464.65 Å² and a collision cross section under setting [10] of 539.12 ± 0.61 Å².
